Assay results taken from PMC11086627, “Substrate displacement of CK1 C-termini regulates kinase specificity” (Science Advances, 2024).
Values belong to the molecule of their own block, whether it stands above or below them. Square brackets hold non-standard residues; d marks the D form. Ends that are not written are not given here. * marks the point of attachment. Biotin = O=C1N[C@H]2[C@H](CS[C@H]2CCCCC(=O)*)N1; pT = C[C@@H](OP(=O)(O)O)[C@H](N)C(=O)O; pS = N[C@@H](COP(=O)(O)O)C(=O)O

What was measured:
[1] = biological target: CK1ε CK1εΔC, 1-294 (UniProt P49674); experiment: biotin-peptide streptavidin bead pull-down; settings: reference: unphosphorylated EC peptide; sites S389,S390,S391,S405,T407,S408
Sequence of CK1ε CK1εΔC, 1-294 (P49674 383-416, stated change not applied): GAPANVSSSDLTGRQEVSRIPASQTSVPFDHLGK

[2] = biological target: Hhp1 Hhp1ΔC, 1-296 (UniProt P40235); experiment: biotin-peptide streptavidin bead pull-down; settings: reference: unphosphorylated Cter peptide; sites S326,S327,T345,T346,S354,T356
[3] = biological target: Hhp1 Cter-6P peptide (amino acids 297 to 365 of Hhp1, phosphorylated at six sites, biotin-conjugated) (S. pombe) (UniProt P40235); experiment: pull-down; competitive equilibrium binding assay: as the equilibrium binding assay on peptide beads, with 25 μM substrate (casein or Rec11) added along with the kinase; fit constrained to Bmax = 1 for the apparent Kd; Ki from Kd(app)=Kd(1+[I]/Ki)
[4] = biological target: Hhp1 Cter-6P peptide (amino acids 297 to 365 of Hhp1, phosphorylated at six sites, biotin-conjugated) (S. pombe) (UniProt P40235); experiment: pull-down; equilibrium binding assay: peptide-conjugated streptavidin beads at 0 to 847 μM peptide incubated with 100 ng of MBP-Hhp1ΔC in binding buffer [50 mM tris (pH 7.0), 25 mM NaCl, 1 mM EDTA, 1 mM DTT], 1 hour at 4°C; unbound kinase in the supernatant by Western blot and densitometry; one-site specific binding fit
[5] = biological target: Hhp1 C-terminus (Cter), 297-365 (UniProt P40235); experiment: equilibrium bead binding, supernatant depletion; settings: reference: wild-type Hhp1ΔC; sites T221,T222
[6] = biological target: MBP-Hhp1ΔC (Hhp1 amino acids 1 to 296) (S. pombe) (UniProt P40235); experiment: pull-down; competitive equilibrium binding assay: as the equilibrium binding assay on peptide beads, with 25 μM substrate (casein or Rec11) added along with the kinase; fit constrained to Bmax = 1 for the apparent Kd; Ki from Kd(app)=Kd(1+[I]/Ki)
[7] = biological target: T1, MBP-Hhp1ΔC (Hhp1 amino acids 1 to 296) (S. pombe, UniProt P40235 1-296); experiment: ITC; second replicate
T1 chain: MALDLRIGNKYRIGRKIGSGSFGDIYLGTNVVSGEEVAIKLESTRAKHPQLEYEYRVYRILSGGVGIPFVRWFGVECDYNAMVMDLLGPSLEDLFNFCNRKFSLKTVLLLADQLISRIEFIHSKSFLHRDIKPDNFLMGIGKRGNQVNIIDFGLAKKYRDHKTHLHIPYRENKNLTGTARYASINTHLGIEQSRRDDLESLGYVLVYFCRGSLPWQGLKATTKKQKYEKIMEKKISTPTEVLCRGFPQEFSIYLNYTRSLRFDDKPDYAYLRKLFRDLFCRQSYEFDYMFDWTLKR

[8] = biological target: T1, MBP-Hhp1ΔC (Hhp1 amino acids 1 to 296); experiment: apparent, in the presence of 25 uM Rec11
[9] = biological target: MBP-Hhp1ΔC (Hhp1 amino acids 1 to 296) (S. pombe) (UniProt P40235); experiment: ITC; Nano-ITC, 25°C, 10 mM NaPO4 (pH 7.5), 150 mM NaCl, 0.25 mM TCEP; cell: 100 μM MBP-Hhp1ΔC or MBP-CK1εΔC; syringe: 2 mM peptide; single-site binding model; duplicate
[10] = biological target: T2, MBP-Hhp1ΔC-VV (S. pombe, UniProt P40235 1-296)
T2 chain: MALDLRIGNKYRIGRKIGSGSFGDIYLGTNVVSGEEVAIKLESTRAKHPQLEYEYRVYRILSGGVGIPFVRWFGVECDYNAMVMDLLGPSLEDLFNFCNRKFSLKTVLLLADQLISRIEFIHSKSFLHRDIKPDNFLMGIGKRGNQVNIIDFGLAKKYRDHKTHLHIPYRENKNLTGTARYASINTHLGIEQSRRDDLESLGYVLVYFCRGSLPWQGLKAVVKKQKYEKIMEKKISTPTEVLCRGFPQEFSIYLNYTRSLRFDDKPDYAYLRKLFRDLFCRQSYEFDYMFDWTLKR

[11] = biological target: T3, MBP-Hhp1ΔC (Hhp1 amino acids 1 to 296) (S. pombe, UniProt P40235 1-296); experiment: pull-down; competitive equilibrium binding assay: as the equilibrium binding assay on peptide beads, with 25 μM substrate (casein or Rec11) added along with the kinase; fit constrained to Bmax = 1 for the apparent Kd; Ki from Kd(app)=Kd(1+[I]/Ki); settings: both partners purified
T3 construct: Hhp1, CK1 enzyme of Schizosaccharomyces pombe, C-terminally truncated, amino acids 1-296; cDNA cloned into pMAL-C2; also called Hhp1-delC; Hhp1 kinase domain; source: E. coli Rosetta2(DE3)pLysS, purified (amylose beads, eluted with maltose)
T3 sequence (looked up): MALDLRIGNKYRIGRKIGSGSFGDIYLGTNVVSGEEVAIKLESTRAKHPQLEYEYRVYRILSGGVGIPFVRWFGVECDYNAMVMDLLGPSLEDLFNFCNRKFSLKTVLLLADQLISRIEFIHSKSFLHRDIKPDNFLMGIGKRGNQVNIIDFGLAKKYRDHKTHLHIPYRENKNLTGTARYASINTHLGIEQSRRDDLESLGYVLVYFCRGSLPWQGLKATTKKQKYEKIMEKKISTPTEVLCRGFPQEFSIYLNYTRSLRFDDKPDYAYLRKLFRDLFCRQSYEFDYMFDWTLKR

[12] = biological target: T4, MBP-CK1εΔC-T220N (human, UniProt P49674 1-294, T220N); experiment: pull-down; biotin peptide on streptavidin sepharose (500 μM peptide) incubated with 2 μg of MBP-kinaseΔC in binding buffer [50 mM tris (pH 7.0), 25 mM NaCl, 1 mM EDTA, 1 mM DTT], 1 hour at 4°C; beads blocked in 5% BSA; bound protein detected by Western blot with anti-MBP; settings: both partners purified
T4 construct: human CK1ε, amino acids 1-294, kinase domain autophosphorylation site T220 mutated; source: E. coli Rosetta2(DE3)pLysS, purified (amylose beads, eluted with maltose)
T4 sequence (looked up): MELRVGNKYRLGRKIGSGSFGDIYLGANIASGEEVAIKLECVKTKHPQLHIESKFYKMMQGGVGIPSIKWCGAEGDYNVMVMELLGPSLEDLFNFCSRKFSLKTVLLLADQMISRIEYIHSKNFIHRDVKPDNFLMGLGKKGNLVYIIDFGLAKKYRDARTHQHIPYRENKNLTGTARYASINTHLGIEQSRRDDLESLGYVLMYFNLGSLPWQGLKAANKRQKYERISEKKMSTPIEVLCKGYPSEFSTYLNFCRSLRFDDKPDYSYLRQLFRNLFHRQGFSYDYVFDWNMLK

[13] = biological target: MBP-CK1εΔC (human CK1ε amino acids 1-294) (human) (UniProt P49674); experiment: ITC; Nano-ITC, 25°C, 10 mM NaPO4 (pH 7.5), 150 mM NaCl, 0.25 mM TCEP; cell: 100 μM MBP-Hhp1ΔC or MBP-CK1εΔC; syringe: 2 mM peptide; single-site binding model; duplicate
Sequence of MBP-CK1εΔC (human CK1ε amino acids 1-294) (human) (P49674 1-294, stated change not applied): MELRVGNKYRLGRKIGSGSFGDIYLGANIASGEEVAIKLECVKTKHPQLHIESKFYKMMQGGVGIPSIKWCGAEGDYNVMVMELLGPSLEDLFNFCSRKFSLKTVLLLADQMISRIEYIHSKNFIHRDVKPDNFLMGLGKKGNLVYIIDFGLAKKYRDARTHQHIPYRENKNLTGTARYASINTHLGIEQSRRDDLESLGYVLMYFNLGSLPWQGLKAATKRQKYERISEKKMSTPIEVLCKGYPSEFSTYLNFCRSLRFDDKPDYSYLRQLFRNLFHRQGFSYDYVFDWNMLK

Molecule: Hhp1 C-terminus (Cter), 297-365 (from UniProt P40235) Cter-6P peptide
binding against the reference [2]: gained

Molecule: dephosphorylated alpha casein (natural protein)
Ki [6]: 14 µM

B1: Hhp1 Cter-6P peptide (amino acids 297 to 365 of Hhp1, phosphorylated at six sites, biotin-conjugated) (peptide)
peptide: Biotin-KTQQDQQHQQQLQQQLSATPQAINPPPER[pS][pS]FRNYQKQNFDEKGGDIN[pT][pT]VPVINDP[pS]A[pT]GAQYINRPN
Kd [7]: 283 µM
Kd [8]: 425 µM
Kd [9]: 335 µM

B4: CK1ε EC-6P peptide (amino acids 383 to 416 of CK1ε, phosphorylated at six sites, biotin-conjugated) (peptide, UniProt P49674 383-416, looked up)
peptide: Biotin-GAPANV[pS][pS][pS]DLTGRQEVSRIPA[pS]Q[pT][pS]VPFDHLGK
notes: human CK1ε, final 34 amino acids, 383-416; source: synthetic peptide (LifeTein LLC)
binding result [12]: binds
Kd [13]: 343 µM

The next lines start with the values.

binding against the reference [1]: gained
Molecule: CK1ε extreme C-terminus (EC), 383-416 (from UniProt P49674) EC-6P peptide

Kd(app) in the presence of 25 μM casein [3]: 658 µM
Kd [4]: 240 µM
Molecule: MBP-Hhp1ΔC (Hhp1 amino acids 1 to 296) (from UniProt P40235 1-296) (domain or fragment)

binding against the reference [5]: gained
Molecule: Hhp1 Hhp1ΔC, 1-296 (from UniProt P40235) Hhp1ΔC-VV

Kd [10]: 269 µM
B2: Hhp1 Cter peptide (amino acids 297 to 365 of Hhp1, unphosphorylated, biotin-conjugated) (peptide)
peptide: Biotin-KTQQDQQHQQQLQQQLSATPQAINPPPERSSFRNYQKQNFDEKGGDINTTVPVINDPSATGAQYINRPN

Ki [11]: 32 µM
B3: GST-Rec11-N3 (N terminus of Rec11, amino acids 1-33) (domain or fragment, UniProt Q92380 1-33, looked up)
chain: MRFEFESDASSHLNEVLTELESVELENVEYEGP
notes: Rec11, physiological Hhp1 substrate involved in meiosis, N terminus, amino acids 1-33; source: expressed and purified as previously described (16)
